Test system: HIV-1 RT p66/p51 wild type (HIV-1)
Experiment: fluorescence polarization
Conditions: not stated in the held text (SI Experimental section)

5'-fluorescein DNA/RNA hybrid
Kd: 3.5 nM

From paper PMC6034511
